Source: patent publication US20140357577A1, “HIV Membrane Fusion Inhibitors” (priority 2011, published 2014)
Starred links: 1 amine or outer side, 2 acyl side, 3 side chain; linkers in the order of their positions; H or OH if unused. Positions of bridges follow the written chain, without caps; N, C: chain ends. Non-standard residues stand in square brackets, D forms with d. *: point of attachment. cholesteryl‑oxycarbonylmethyl = CC(C)CCC[C@@H](C)[C@H]1CC[C@H]2[C@@H]3CC=C4C[C@@H](OC(=O)C*)CC[C@]4(C)[C@H]3CC[C@]12C; B21 = 2,7-dimethylnaphtyl, c1cc2ccc(C[*:2])cc2cc1C[*:1]; pXylylene = c1cc(C[*:2])ccc1C[*:1]; Suc = O=C(CCC(=O)[*:2])[*:1]; hCys = N[C@@H](CCS)C(=O)O; B1 = not defined here

B1: peptide 72 (peptide)
peptide: Ac-ACYAACIEELIRKAQEQQEKNEAALR-NH2
modifications: linker 2-6 via pXylylene
SMILES: CC[C@H](C)[C@H](NC(=O)[C@@H]1CSCc2ccc(cc2)CSC[C@H](NC(=O)[C@H](C)NC(C)=O)C(=O)N[C@@H](Cc2ccc(O)cc2)C(=O)N[C@@H](C)C(=O)N[C@@H](C)C(=O)N1)C(=O)N[C@@H](CCC(=O)O)C(=O)N[C@@H](CCC(=O)O)C(=O)N[C@@H](CC(C)C)C(=O)N[C@H](C(=O)N[C@@H](CCCNC(=N)N)C(=O)N[C@@H](CCCCN)C(=O)N[C@@H](C)C(=O)N[C@@H](CCC(N)=O)C(=O)N[C@@H](CCC(=O)O)C(=O)N[C@@H](CCC(N)=O)C(=O)N[C@@H](CCC(N)=O)C(=O)N[C@@H](CCC(=O)O)C(=O)N[C@@H](CCCCN)C(=O)N[C@@H](CC(N)=O)C(=O)N[C@@H](CCC(=O)O)C(=O)N[C@@H](C)C(=O)N[C@@H](C)C(=O)N[C@@H](CC(C)C)C(=O)N[C@@H](CCCNC(=N)N)C(N)=O)[C@@H](C)CC
B2: peptide 73 (peptide)
peptide: Ac-ACYAACIEALIRAAQEQQEKNEALLR-NH2
modifications: linker 2-6 via pXylylene
SMILES: CC[C@H](C)[C@H](NC(=O)[C@H](CC(C)C)NC(=O)[C@H](C)NC(=O)[C@H](CCC(=O)O)NC(=O)[C@@H](NC(=O)[C@@H]1CSCc2ccc(cc2)CSC[C@H](NC(=O)[C@H](C)NC(C)=O)C(=O)N[C@@H](Cc2ccc(O)cc2)C(=O)N[C@@H](C)C(=O)N[C@@H](C)C(=O)N1)[C@@H](C)CC)C(=O)N[C@@H](CCCNC(=N)N)C(=O)N[C@@H](C)C(=O)N[C@@H](C)C(=O)N[C@@H](CCC(N)=O)C(=O)N[C@@H](CCC(=O)O)C(=O)N[C@@H](CCC(N)=O)C(=O)N[C@@H](CCC(N)=O)C(=O)N[C@@H](CCC(=O)O)C(=O)N[C@@H](CCCCN)C(=O)N[C@@H](CC(N)=O)C(=O)N[C@@H](CCC(=O)O)C(=O)N[C@@H](C)C(=O)N[C@@H](CC(C)C)C(=O)N[C@@H](CC(C)C)C(=O)N[C@@H](CCCNC(=N)N)C(N)=O
B3: peptide 74 (peptide)
peptide: Ac-ECYAACIEALIRAAQEQQEKNEAALR-NH2
modifications: linker 2-6 via pXylylene
SMILES: CC[C@H](C)[C@H](NC(=O)[C@H](CC(C)C)NC(=O)[C@H](C)NC(=O)[C@H](CCC(=O)O)NC(=O)[C@@H](NC(=O)[C@@H]1CSCc2ccc(cc2)CSC[C@H](NC(=O)[C@H](CCC(=O)O)NC(C)=O)C(=O)N[C@@H](Cc2ccc(O)cc2)C(=O)N[C@@H](C)C(=O)N[C@@H](C)C(=O)N1)[C@@H](C)CC)C(=O)N[C@@H](CCCNC(=N)N)C(=O)N[C@@H](C)C(=O)N[C@@H](C)C(=O)N[C@@H](CCC(N)=O)C(=O)N[C@@H](CCC(=O)O)C(=O)N[C@@H](CCC(N)=O)C(=O)N[C@@H](CCC(N)=O)C(=O)N[C@@H](CCC(=O)O)C(=O)N[C@@H](CCCCN)C(=O)N[C@@H](CC(N)=O)C(=O)N[C@@H](CCC(=O)O)C(=O)N[C@@H](C)C(=O)N[C@@H](C)C(=O)N[C@@H](CC(C)C)C(=O)N[C@@H](CCCNC(=N)N)C(N)=O
B4: peptide 78 (peptide)
peptide: Ac-A[hCys]YAA[hCys]IEALIRAAQEQQEKNEAALR-NH2
modifications: linker 2-6 via B21
SMILES: CC[C@H](C)[C@H](NC(=O)[C@H](CC(C)C)NC(=O)[C@H](C)NC(=O)[C@H](CCC(=O)O)NC(=O)[C@@H](NC(=O)[C@@H]1CCSCc2ccc3ccc(cc3c2)CSCC[C@H](NC(=O)[C@H](C)NC(C)=O)C(=O)N[C@@H](Cc2ccc(O)cc2)C(=O)N[C@@H](C)C(=O)N[C@@H](C)C(=O)N1)[C@@H](C)CC)C(=O)N[C@@H](CCCNC(=N)N)C(=O)N[C@@H](C)C(=O)N[C@@H](C)C(=O)N[C@@H](CCC(N)=O)C(=O)N[C@@H](CCC(=O)O)C(=O)N[C@@H](CCC(N)=O)C(=O)N[C@@H](CCC(N)=O)C(=O)N[C@@H](CCC(=O)O)C(=O)N[C@@H](CCCCN)C(=O)N[C@@H](CC(N)=O)C(=O)N[C@@H](CCC(=O)O)C(=O)N[C@@H](C)C(=O)N[C@@H](C)C(=O)N[C@@H](CC(C)C)C(=O)N[C@@H](CCCNC(=N)N)C(N)=O
B5: peptide 79 (peptide)
peptide: Ac-A[hCys]YAA[hCys]IEALIRKAQEQQEKNEAALR-NH2
modifications: linker 2-6 via B21
SMILES: CC[C@H](C)[C@H](NC(=O)[C@@H]1CCSCc2ccc3ccc(cc3c2)CSCC[C@H](NC(=O)[C@H](C)NC(C)=O)C(=O)N[C@@H](Cc2ccc(O)cc2)C(=O)N[C@@H](C)C(=O)N[C@@H](C)C(=O)N1)C(=O)N[C@@H](CCC(=O)O)C(=O)N[C@@H](C)C(=O)N[C@@H](CC(C)C)C(=O)N[C@H](C(=O)N[C@@H](CCCNC(=N)N)C(=O)N[C@@H](CCCCN)C(=O)N[C@@H](C)C(=O)N[C@@H](CCC(N)=O)C(=O)N[C@@H](CCC(=O)O)C(=O)N[C@@H](CCC(N)=O)C(=O)N[C@@H](CCC(N)=O)C(=O)N[C@@H](CCC(=O)O)C(=O)N[C@@H](CCCCN)C(=O)N[C@@H](CC(N)=O)C(=O)N[C@@H](CCC(=O)O)C(=O)N[C@@H](C)C(=O)N[C@@H](C)C(=O)N[C@@H](CC(C)C)C(=O)N[C@@H](CCCNC(=N)N)C(N)=O)[C@@H](C)CC
B6: peptide 80 (peptide)
peptide: Ac-A[hCys]YAA[hCys]IEALIRKAQEQQEKNEAALR-NH2
modifications: linker 2-6 via B21
SMILES: CC[C@H](C)[C@H](NC(=O)[C@@H]1CCSCc2ccc3ccc(cc3c2)CSCC[C@H](NC(=O)[C@H](C)NC(C)=O)C(=O)N[C@@H](Cc2ccc(O)cc2)C(=O)N[C@@H](C)C(=O)N[C@@H](C)C(=O)N1)C(=O)N[C@@H](CCC(=O)O)C(=O)N[C@@H](C)C(=O)N[C@@H](CC(C)C)C(=O)N[C@H](C(=O)N[C@@H](CCCNC(=N)N)C(=O)N[C@@H](CCCCN)C(=O)N[C@@H](C)C(=O)N[C@@H](CCC(N)=O)C(=O)N[C@@H](CCC(=O)O)C(=O)N[C@@H](CCC(N)=O)C(=O)N[C@@H](CCC(N)=O)C(=O)N[C@@H](CCC(=O)O)C(=O)N[C@@H](CCCCN)C(=O)N[C@@H](CC(N)=O)C(=O)N[C@@H](CCC(=O)O)C(=O)N[C@@H](C)C(=O)N[C@@H](C)C(=O)N[C@@H](CC(C)C)C(=O)N[C@@H](CCCNC(=N)N)C(N)=O)[C@@H](C)CC
B7: peptide 82 (peptide)
peptide: Suc-ECYLRCIEELIRKAQEQQEKNEAALRGSGC(cholesteryl‑oxycarbonylmethyl)-NH2
modifications: linker 2-6 via pXylylene
SMILES: CC[C@H](C)[C@H](NC(=O)[C@H](CC(C)C)NC(=O)[C@H](CCC(=O)O)NC(=O)[C@H](CCC(=O)O)NC(=O)[C@@H](NC(=O)[C@@H]1CSCc2ccc(cc2)CSC[C@H](NC(=O)[C@H](CCC(=O)O)NC(=O)CCC(=O)O)C(=O)N[C@@H](Cc2ccc(O)cc2)C(=O)N[C@@H](CC(C)C)C(=O)N[C@@H](CCCNC(=N)N)C(=O)N1)[C@@H](C)CC)C(=O)N[C@@H](CCCNC(=N)N)C(=O)N[C@@H](CCCCN)C(=O)N[C@@H](C)C(=O)N[C@@H](CCC(N)=O)C(=O)N[C@@H](CCC(=O)O)C(=O)N[C@@H](CCC(N)=O)C(=O)N[C@@H](CCC(N)=O)C(=O)N[C@@H](CCC(=O)O)C(=O)N[C@@H](CCCCN)C(=O)N[C@@H](CC(N)=O)C(=O)N[C@@H](CCC(=O)O)C(=O)N[C@@H](C)C(=O)N[C@@H](C)C(=O)N[C@@H](CC(C)C)C(=O)N[C@@H](CCCNC(=N)N)C(=O)NCC(=O)N[C@@H](CO)C(=O)NCC(=O)N[C@@H](CSCC(=O)O[C@H]1CC[C@@]2(C)C(=CC[C@H]3[C@@H]4CC[C@H]([C@H](C)CCCC(C)C)[C@@]4(C)CC[C@@H]32)C1)C(N)=O
B8: peptide 84 (peptide)
peptide: Ac-ACYAACIEALIRAAREQQEKNEAALR-NH2
modifications: linker 2-6 via pXylylene
SMILES: CC[C@H](C)[C@H](NC(=O)[C@H](CC(C)C)NC(=O)[C@H](C)NC(=O)[C@H](CCC(=O)O)NC(=O)[C@@H](NC(=O)[C@@H]1CSCc2ccc(cc2)CSC[C@H](NC(=O)[C@H](C)NC(C)=O)C(=O)N[C@@H](Cc2ccc(O)cc2)C(=O)N[C@@H](C)C(=O)N[C@@H](C)C(=O)N1)[C@@H](C)CC)C(=O)N[C@@H](CCCNC(=N)N)C(=O)N[C@@H](C)C(=O)N[C@@H](C)C(=O)N[C@@H](CCCNC(=N)N)C(=O)N[C@@H](CCC(=O)O)C(=O)N[C@@H](CCC(N)=O)C(=O)N[C@@H](CCC(N)=O)C(=O)N[C@@H](CCC(=O)O)C(=O)N[C@@H](CCCCN)C(=O)N[C@@H](CC(N)=O)C(=O)N[C@@H](CCC(=O)O)C(=O)N[C@@H](C)C(=O)N[C@@H](C)C(=O)N[C@@H](CC(C)C)C(=O)N[C@@H](CCCNC(=N)N)C(N)=O

Molecular target: gp41 of HIV-1 strain HXB2D with mutation V38A (HIV-1 strain HXB2D, UniProt P04578)
Assay: cell-based or functional assay

**Q.** How did the “fold change in EC50, HIV-HXB2D V38A mutant” value (shortened to “fold change in EC50”) turn out when B1 was run?
**A.** 10 fold

**Q.** How did the “fold change in EC50” value turn out when B2 was run?
**A.** 60 fold

**Q.** How did the “fold change in EC50” value turn out when B3 was run?
**A.** 33 fold

**Q.** How did the “fold change in EC50” value turn out when Ac-[dA]CYAACIEALIRAAQEQQEKNEAAL[dR]-NH2 (linker 2-6 via 2,7‑dimethylnaphthyl) [peptide 75] was run?
**A.** 21 fold

**Q.** For Ac-[dA]CYAACIEALIRAAQEQQEKNEAAL[dR]-NH2 (linker 2-6 via 2,7‑dimethylnaphthyl) [peptide 76], which “fold change in EC50” value is on record?
**A.** 48 fold

**Q.** With Ac-A[hCys]YAA[hCys]IEALIRAAQEQQEKNEAALR-NH2 (linker 2-6 via B1; reading uncertain) [peptide 77] as the binder, how does the “fold change in EC50” value read?
**A.** 39 fold

**Q.** With B4 as the binder, how does the “fold change in EC50” value read?
**A.** 61 fold

**Q.** With B5 as the binder, how does the “fold change in EC50” value read?
**A.** 27 fold

**Q.** B6 was tested. Which “fold change in EC50” value did it give?
**A.** 40 fold

**Q.** How did the “fold change in EC50” value turn out when B7 was run?
**A.** 1 fold

**Q.** With Ac-ACYAA[dC]IEALIRAAQEQQEKNEAALR-NH2 (linker 2-6 via pXylylene; not fully specified) [peptide 83] as the binder, how does the “fold change in EC50” value read?
**A.** 6 fold

**Q.** For B8, which “fold change in EC50” value is on record?
**A.** 9 fold
